Results: publication PMC10570711, “Tetramerization of upstream stimulating factor USF2 requires the elongated bent leucine zipper of the bHLH-LZ domain” (The Journal of Biological Chemistry, 2023)
Changes are numbered by the printed parent chain. In names and notes the source's numbering stands.

Legend:
[1] = target: the molecule itself; assay: dynamic light scattering; USF2_bHLH-LZ-ext-DNA complexes, 400 μM sample; 100 mM KCl, 10 mM Hepes pH 7.5
[2] = target: the molecule itself; assay: SEC-MALS; 700 μM protein mixed with 350 μM E-box DNA, overnight at 4 °C; Superdex 75 Increase; 20 mM Hepes pH 7.5, 100 mM KCl, 10 mM DTT; 0.5 ml/min; the constant is of tetramer to dimers
[3] = target: the molecule itself; assay: crystal structure; USF2 235-346 cocrystallised with 18 bp double-stranded E-box DNA; sitting drop, 18 °C, 0.1 M Tris pH 7.0, 20% PEG4000; 3.5 Å; four protein chains in the asymmetric unit
MBP-USF2_WT = target: T1, MBP-USF2_WT (human, UniProt Q15853 235-346); assay: fluorescence polarisation; fluorescence anisotropy; 10 nM 5IAF-labelled USF2_WT, MBP-USF2 proteins titrated 0-6 μM; 20 mM Tris 8.0, 50 mM KCl, 2 mM MgCl2, 0.5% glycerol; 4 °C overnight; apparent; dimer to monomers; settings: both partners purified
T1 construct: Upstream stimulating factor 2 (USF2), human, isoform 1, residues 235-346 (bHLH-LZ-Ext domain); Built in a pHis-MBP-TEV vector; a TEV site lies between the tag and USF2; also called 6×HisMBP-USF2_WT; source: E. coli Rosetta (DE3), purified (Ni-HiTrap, Superdex 75); not shown: His6, N-terminal, kept; MBP, N-terminal, kept

MBP-USF2 R248A = target: T2, MBP-USF2 R248A (Homo sapiens, UniProt Q15853 235-346, R248A); assay: fluorescence anisotropy; FA: 20 nM FAM-DNA, 20 mM Tris pH 8.0, 50 mM KCl, 2 mM MgCl2, 0.5% glycerol, 4 C, 3 h; EMSA: 100 nM Cy3-DNA, 10 mM Tris pH 8.0, 50 mM KCl, 1 mM DTT, 2 mM MgCl2; settings: protein: recombinant; tags: 6xHis-MBP N-terminal; chain copies: 2; label: 5'-FAM on strand 1; blunt as printed if S3 is read 3'-5' (printed with 5'-3' labels)
T2 sequence: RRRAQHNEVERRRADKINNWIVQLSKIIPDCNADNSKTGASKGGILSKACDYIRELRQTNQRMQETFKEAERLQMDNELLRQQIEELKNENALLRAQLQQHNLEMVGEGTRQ

MBP-USF2 E244A = target: T3, MBP-USF2 E244A (Homo sapiens, UniProt Q15853 235-346, E244A); assay: as above; settings: protein: recombinant; tags: 6xHis-MBP N-terminal; chain copies: 2; label: 5'-FAM on strand 1; blunt as printed if S3 is read 3'-5' (printed with 5'-3' labels)
T3 sequence: T2 sequence with E10A, A14R

MBP-USF2 R247A = target: T4, MBP-USF2 R247A (Homo sapiens, UniProt Q15853 235-346, R247A); assay: as above; settings: protein: recombinant; tags: 6xHis-MBP N-terminal; chain copies: 2; label: 5'-FAM on strand 1; blunt as printed if S3 is read 3'-5' (printed with 5'-3' labels)
T4 sequence: T2 sequence with R13A, A14R

MBP-USF2 E244K = target: T5, MBP-USF2 E244K (Homo sapiens, UniProt Q15853 235-346, E244K); assay: as above; settings: protein: recombinant; tags: 6xHis-MBP N-terminal; chain copies: 2; label: 5'-FAM on strand 1; blunt as printed if S3 is read 3'-5' (printed with 5'-3' labels)
T5 sequence: T2 sequence with E10K, A14R

MBP-USF2 H240A = MBP-USF2 H240A (Homo sapiens, UniProt Q15853 235-346, H240A); assay: as above; settings: protein: recombinant; tags: 6xHis-MBP N-terminal; chain copies: 2; label: 5'-FAM on strand 1; blunt as printed if S3 is read 3'-5' (printed with 5'-3' labels)
Sequence of MBP-USF2 H240A (Q15853 235-346 H240A): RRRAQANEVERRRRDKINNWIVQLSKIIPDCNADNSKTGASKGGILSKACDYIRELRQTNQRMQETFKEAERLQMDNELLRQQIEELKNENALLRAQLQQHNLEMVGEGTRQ

MBP-USF2_ΔLZ-Ext = MBP-USF2_ΔLZ-Ext (Homo sapiens, UniProt Q15853 235-292); assay: as above; settings: protein: recombinant; tags: 6xHis-MBP N-terminal; chain copies: 2; label: 5'-FAM on strand 1; blunt as printed if S3 is read 3'-5' (printed with 5'-3' labels)
USF2_Q334K = USF2_Q334K (Homo sapiens, UniProt Q15853 235-346, Q334K); assay: fluorescence anisotropy; similar to USF2_WT; FA: 20 nM FAM-DNA, 20 mM Tris pH 8.0, 50 mM KCl, 2 mM MgCl2, 0.5% glycerol, 4 C, 3 h; EMSA: 100 nM Cy3-DNA, 10 mM Tris pH 8.0, 50 mM KCl, 1 mM DTT, 2 mM MgCl2; settings: protein: recombinant; chain copies: 2; label: 5'-FAM on strand 1; blunt as printed if S3 is read 3'-5' (printed with 5'-3' labels)
Sequence of USF2_Q334K (Q15853 235-346 Q334K): as the sequence (Q15853 235-346 H240A) above, with A6H, Q100K counted along it

B1: USF2_bHLH-LZ-Ext (human USF2 isoform 1, residues 235-346) (domain or fragment, UniProt Q15853 235-346, looked up)
chain: T2 sequence with A14R
notes: Upstream stimulating factor 2 (USF2), human, isoform 1, residues 235-346 (basic region to the C terminus; bHLH-LZ-Ext); In the crystal, SEC-MALS and DLS experiments the protein was in complex with 18 bp E-box DNA; His-MBP tag removed with TEV protease; also called USF2_WT; bHLH-LZ-Ext domain of USF2; source: E. coli Rosetta (DE3), purified (Ni-HiTrap, Superdex 75; TEV cleavage, HiTrap SP, S75); …
[1]
  stoichiometry N: 4
[2]
  Kd: ~800000 nM
[3]
  stoichiometry N: 2

B2: 5IAF-labelled USF2_WT (5IAFUSF2_WT; labelled CGG-USF2_WT) (domain or fragment, human)
chain: CGGRRRAQHNEVERRRRDKINNWIVQLSKIIPDCNADNSKTGASKGGILSKACDYIRELRQTNQRMQETFKEAERLQMDNELLRQQIEELKNENALLRAQLQQHNLEMVGEGTRQ
modifications: 5-iodoacetamido-fluorescein (5-IAF) on the sulfhydryl cysteine end of CGG-USF2_WT
notes: CGG added before USF2 for labelling with 5-IAF (construct MBP-CGG-USF2_WT); Upstream stimulating factor 2 (USF2), human, isoform 1, residues 235-346 (bHLH-LZ-Ext domain); Made from MBP-CGG-USF2_WT by TEV cleavage of the His-MBP tag; also called 5IAF labeled USF2_WT; source: E. coli Rosetta (DE3), purified (Ni-HiTrap, TEV cleavage, HiTrap SP, S75), labelled with 5-IAF; not shown: His6, N-terminal, …
MBP-USF2_WT
  Kd: 100 ± 19 nM

B3: USF2_E312R_E320R (bHLH-LZ-Ext domain, residues 235-346, double mutant) (domain or fragment, human, UniProt Q15853 235-346, looked up)
chain: T2 sequence with A14R, E78R, E86R
notes: Upstream stimulating factor 2 (USF2), human, isoform 1, residues 235-346 (bHLH-LZ-Ext domain) with E312R and E320R; Generated on the construct MBP-USF2_WT; also called E312R/E320R double mutation; tetramer interface mutant; source: E. coli Rosetta (DE3), purified (Ni-HiTrap, Superdex 75)
[2]
  stoichiometry N: 2

B4: FAM E-box DNA (dsDNA)
DNA 1: GACGGGCACGTGACGCGC
DNA 2: GCGCGTCACGTGCCCGTC
MBP-USF2 R248A
  Kd: 460 ± 79 nM
MBP-USF2 E244A
  Kd: 72 ± 23 nM
MBP-USF2 R247A
  Kd: 250 ± 67 nM
MBP-USF2 E244K
  Kd: 290 ± 98 nM
MBP-USF2 H240A
  Kd: 210 ± 43 nM
MBP-USF2_ΔLZ-Ext
  binding signal: > 20 fold decrease vs USF2_WT
USF2_Q334K
  binding result: binds
